From patent US20090214535A1 (Chugai, published 2009)
Like-named read-outs stand apart in the source and are kept apart here.

T1: human Mpl (on BaF3-human Mpl cells) (human, UniProt P40238 26-635)
T1 sequence (looked up): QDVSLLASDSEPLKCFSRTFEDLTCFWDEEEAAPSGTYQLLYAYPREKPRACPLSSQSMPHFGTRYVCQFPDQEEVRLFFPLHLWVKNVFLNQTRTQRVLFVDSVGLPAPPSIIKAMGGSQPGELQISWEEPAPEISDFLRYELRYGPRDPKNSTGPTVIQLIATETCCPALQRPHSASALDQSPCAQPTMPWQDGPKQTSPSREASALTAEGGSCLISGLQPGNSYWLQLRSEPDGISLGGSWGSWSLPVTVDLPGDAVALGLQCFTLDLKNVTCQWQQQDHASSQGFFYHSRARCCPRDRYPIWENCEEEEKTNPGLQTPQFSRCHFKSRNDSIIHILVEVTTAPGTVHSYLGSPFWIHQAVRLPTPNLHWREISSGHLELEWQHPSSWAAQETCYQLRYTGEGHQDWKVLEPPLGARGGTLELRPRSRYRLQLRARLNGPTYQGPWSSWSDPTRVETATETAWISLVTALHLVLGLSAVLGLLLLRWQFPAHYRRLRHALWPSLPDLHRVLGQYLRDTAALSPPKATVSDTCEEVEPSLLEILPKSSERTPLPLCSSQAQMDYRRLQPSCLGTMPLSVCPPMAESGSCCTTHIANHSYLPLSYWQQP

B1: humanized anti-human Mpl antibody hVB22B u2-wz4 sc(Fv)2 (bulk, before separation of the conformational isomers) (scFv)
chain: QVQLVQSGPEVKKPGASVKVSCKASGYTFTNSWMNWVRQRPGKGLEWIGRIYPGDGETIYNGKFRVRVTITADESTSTAYMQLSSLRSEDTAVYYCARGYDDYSFAYWGQGTTVTVSSGGGGSGGGGSGGGGSDIVMTQSPLSLPVTPGEPASISCRSSKSLLHSNGNTYLYWFLQKPGQSPQLLIYRMSNLASGVPDRFSGSGSGTDFTLKISRVEAEDVGVYYCMQHIEYPFTFGQGTKLEIKGGGGSGGGGSGGGGSQVQLVQSGPEVKKPGASVKVSCKASGYTFTNSWMNWVRQRPGKGLEWIGRIYPGDGETIYNGKFRVRVTITADESTSTAYMQLSSLRSEDTAVYYCARGYDDYSFAYWGQGTTVTVSSGGGGSGGGGSGGGGSDIVMTQSPLSLPVTPGEPASISCRSSKSLLHSNGNTYLYWFLQKPGQSPQLLIYRMSNLASGVPDRFSGSGSGTDFTLKISRVEAEDVGVYYCMQHIEYPFTFGQGTKLEIK
B2: hVB22B u2-wz4 sc(Fv)2 peak 2 (single chain diabody-type conformational isomer) (scFv)
chain: QVQLVQSGPEVKKPGASVKVSCKASGYTFTNSWMNWVRQRPGKGLEWIGRIYPGDGETIYNGKFRVRVTITADESTSTAYMQLSSLRSEDTAVYYCARGYDDYSFAYWGQGTTVTVSSGGGGSGGGGSGGGGSDIVMTQSPLSLPVTPGEPASISCRSSKSLLHSNGNTYLYWFLQKPGQSPQLLIYRMSNLASGVPDRFSGSGSGTDFTLKISRVEAEDVGVYYCMQHIEYPFTFGQGTKLEIKGGGGSGGGGSGGGGSQVQLVQSGPEVKKPGASVKVSCKASGYTFTNSWMNWVRQRPGKGLEWIGRIYPGDGETIYNGKFRVRVTITADESTSTAYMQLSSLRSEDTAVYYCARGYDDYSFAYWGQGTTVTVSSGGGGSGGGGSGGGGSDIVMTQSPLSLPVTPGEPASISCRSSKSLLHSNGNTYLYWFLQKPGQSPQLLIYRMSNLASGVPDRFSGSGSGTDFTLKISRVEAEDVGVYYCMQHIEYPFTFGQGTKLEIK
B3: hVB22B u2-wz4 (v3) sc(Fv)2 (scFv)
chain: QVQLVQSGPEVKKPGASVKVSCKASGYTFTNSWMNWVRERPGKGLEWIGRIYPGDGETIYNGKFRVRVTITADESTSTAYMQLSSLRSEDTAVYYCARGYDDYSFAYWGQGTTVTVSSGGGGSGGGGSGGGGSDIVMTQSPLSLPVTPGEPASISCRSSKSLLHSNGNTYLYWFLKKPGQSPQLLIYRMSNLASGVPDRFSGSGSGTDFTLKISRVEAEDVGVYYCMQHIEYPFTFGQGTKLEIKGGGGSGGGGSGGGGSQVQLVQSGPEVKKPGASVKVSCKASGYTFTNSWMNWVRKRPGKGLEWIGRIYPGDGETIYNGKFRVRVTITADESTSTAYMQLSSLRSEDTAVYYCARGYDDYSFAYWGQGTTVTVSSGGGGSGGGGSGGGGSDIVMTQSPLSLPVTPGEPASISCRSSKSLLHSNGNTYLYWFLEKPGQSPQLLIYRMSNLASGVPDRFSGSGSGTDFTLKISRVEAEDVGVYYCMQHIEYPFTFGQGTKLEIK
B4: hVB22B u2-wz4 (v1) sc(Fv)2 (scFv)
chain: QVQLVQSGPEVKKPGASVKVSCKASGYTFTNSWMNWVRERPGKGLEWIGRIYPGDGETIYNGKFRVRVTITADESTSTAYMQLSSLRSEDTAVYYCARGYDDYSFAYWGQGTTVTVSSGGGGSGGGGSGGGGSDIVMTQSPLSLPVTPGEPASISCRSSKSLLHSNGNTYLYWFLEKPGQSPQLLIYRMSNLASGVPDRFSGSGSGTDFTLKISRVEAEDVGVYYCMQHIEYPFTFGQGTKLEIKGGGGSGGGGSGGGGSQVQLVQSGPEVKKPGASVKVSCKASGYTFTNSWMNWVRKRPGKGLEWIGRIYPGDGETIYNGKFRVRVTITADESTSTAYMQLSSLRSEDTAVYYCARGYDDYSFAYWGQGTTVTVSSGGGGSGGGGSGGGGSDIVMTQSPLSLPVTPGEPASISCRSSKSLLHSNGNTYLYWFLKKPGQSPQLLIYRMSNLASGVPDRFSGSGSGTDFTLKISRVEAEDVGVYYCMQHIEYPFTFGQGTKLEIK
B5: VB22B sc(Fv)2 peak 2 (single chain diabody-type conformational isomer) (scFv)
chain: QVQLQQSGPELVKPGASVKISCKASGYAFTNSWMNWVKQRPGKGLEWIGRIYPGDGETIYNGKFRVKATLTADKSSSTAYMDISSLTSEDSAVYFCARGYDDYSFAYWGQGTLVTVSAGGGGSGGGGSGGGGSDIVMTQAAPSIPVTPGESVSISCRSSKSLLHSNGNTYLYWFLQRPGQSPQLLIYRMSNLASGVPDRFSGSGSGTAFTLRISRVEAEDVGVYYCMQHIEYPFTFGSGTKLEIKGGGGSGGGGSGGGGSQVQLQQSGPELVKPGASVKISCKASGYAFTNSWMNWVKQRPGKGLEWIGRIYPGDGETIYNGKFRVKATLTADKSSSTAYMDISSLTSEDSAVYFCARGYDDYSFAYWGQGTLVTVSAGGGGSGGGGSGGGGSDIVMTQAAPSIPVTPGESVSISCRSSKSLLHSNGNTYLYWFLQRPGQSPQLLIYRMSNLASGVPDRFSGSGSGTAFTLRISRVEAEDVGVYYCMQHIEYPFTFGSGTKLEIK
B6: mouse anti-human Mpl antibody mVB22B sc(Fv)2 (before separation of the conformational isomers) (scFv)
chain: QVQLQQSGPELVKPGASVKISCKASGYAFTNSWMNWVKQRPGKGLEWIGRIYPGDGETIYNGKFRVKATLTADKSSSTAYMDISSLTSEDSAVYFCARGYDDYSFAYWGQGTLVTVSAGGGGSGGGGSGGGGSDIVMTQAAPSIPVTPGESVSISCRSSKSLLHSNGNTYLYWFLQRPGQSPQLLIYRMSNLASGVPDRFSGSGSGTAFTLRISRVEAEDVGVYYCMQHIEYPFTFGSGTKLEIKGGGGSGGGGSGGGGSQVQLQQSGPELVKPGASVKISCKASGYAFTNSWMNWVKQRPGKGLEWIGRIYPGDGETIYNGKFRVKATLTADKSSSTAYMDISSLTSEDSAVYFCARGYDDYSFAYWGQGTLVTVSAGGGGSGGGGSGGGGSDIVMTQAAPSIPVTPGESVSISCRSSKSLLHSNGNTYLYWFLQRPGQSPQLLIYRMSNLASGVPDRFSGSGSGTAFTLRISRVEAEDVGVYYCMQHIEYPFTFGSGTKLEIK

Columns and labels:
Experiment in all cases: cell-based or functional assay
[1] = biological target: monkey Mpl (on BaF3-monkey Mpl cells) (monkey)
[2] = biological target: T1, human Mpl (on BaF3-human Mpl cells)
[3] = biological target: monkey Mpl (on BaF3-monkey Mpl cells) (monkey); remark: listed apart in the source
[4] = biological target: T1, human Mpl (on BaF3-human Mpl cells); remark: listed apart in the source
[5] = biological target: Mpl on the BaF3 cells of FIG. 42 (human or monkey not stated)
[6] = biological target: monkey Mpl (on BaF3-monkey Mpl cells) (monkey); remark: listed apart in the source
[7] = biological target: T1, human Mpl (on BaF3-human Mpl cells); remark: listed apart in the source

EC50 (read off the curve) [B) BaF-monkey Mpl] [1] [nM] | EC50 (read off the curve) [A) BaF-human Mpl] [2] [nM] | EC50 (read off the curve) [B) BaF-monkey Mpl] [3] [nM] | EC50 (read off the curve) [A) BaF-human Mpl] [4] [nM] | EC50 (read off the curve) [5] [ng/mL] | EC50 (read off the curve) [B) BaF-monkey Mpl] [6] [nM] | EC50 (read off the curve) [A) BaF-human Mpl] [7] [nM] | Binder
~0.02 | ~0.06 | ~0.04 | ~0.04 |  |  |  | B1
~0.02 | ~0.05 | ~0.03 | ~0.04 |  |  |  | B2
 | ~0.1 |  |  |  |  |  | B3
~0.04 | ~0.04 |  |  |  |  |  | B4
 |  |  |  | ~0.6 | ~0.02 | ~0.008 | B5
 |  |  |  |  | ~0.03 | ~0.01 | B6
